Drawing on a protein production outcome set (Wang et al. 2014), this text covers protein production for 21 sequences.
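Also: failed if final PepcDB status was selected cloned or expressed and not failed if soluble or beyond.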

This data set is described as follows: label from the status in PepcDB records.
Take “MAKSVNALINEAIEAGKKRDYKTSILILENLAAEGLAEVSSPFYGEKKGNPEIYLYLSRAWAAVNNYGRSIAYGKAYIKRCSSDPSANSTDLPMGFFFLGRSYLAAGQYDRAVYCLEKSLKLNPHPLETRAMLGSAYLKWKKPRLARETFEEALKFAPSDAKLNAGYLNSLFVEGIYELRNGNADMARQMFSFAIKNGIDGVAPRLYLAHALKMEGYLPEALGQYEAACEFEPDDPALKWYPAMIKMQLGDTTAAAEDFAKLGIEIPDDGVSDRFFAMGVIKKHMERGDYSRAAVAARIFIKTFGSDAEIRLLAAEAQRSMGNTNTALGHYKCALEHEPENPYPHYGIMLALQEAYRWEELSAEILRAEASGVCDADDIYYYKIITAAHIDNPPEEVLPHLQALIQNGRSDSAIFNAMGCCYIKLNMPDLALNWYERALSINEKDEEAKIGIIASYENLQLNKEADEAYNSYLNEWGKNIYIRRDYVLFLEKCERWEDAGNQLEILMSQGKKVNFDPELALFRRKAGQYQKAAILYRKMLRAKPEERLLLHNLVFCLDKMGQTKVSLDLLKAAEKMFGIKTDSMLIKGILQMRLKKKEDAIKTFQYILEKEPKNKHAAEFLEKAYGK”: the protein production entry was “failed”.
Regarding “MAKTLNSICFTTLLLVLLFISAEIPTAEANCDTYLGEVTVYYPCRERDCEAQCYEHYPHSCKGECEHHDHVVHHDNEEEHCHCYGR”, the protein production entry is “failed”.
“MAKVCYFTGRKTVSGNNRSHAMNKTKRVVKPNLQKVTVLIDGKPKKVWASARALKSGKVERVLEHHHHHH”: the protein production entry is recorded as “failed”.
To “MAKYFDIDDILIEEEFVPVLFHKTANGVTIDPSAETNCVSLLIPSAKAEQGSKVELPFWLAHELHLRQAVTINLPPCFDQKTRLEVQADAAYVDLRSRCPYFYEFGCKIEPLVTDRTLGILLSTAFKIRYKEALTKVYTAAHITASKYLSFLTKEETNLYEAAHLSMTAFKKWRTGGPRFQRASILGRKRKDSN” belongs “failed”.
With “MAKYKVGMVSLGCDKNRVDSEIMLGMVQNEYELTNNPKEADIIIVNTCGFIEKAKQESINTILDMAKYKTSHNCKLLIATGCLTQRYGDELLELMPEIDIMLGVNDYAKINEAIMNFINGNNEKVKATNYSDVSINEGLRLITTDKATAYLRIAEGCDNFCTYCIIPKIRGKFRSRALESIVEEAKKLAENGVKELILIAQDTTNYGIDIYGEKKLHLVLRELAKIEGIEWIRVLYCYPEAIYDELIKEISVNDKVCNYLDLPIQHISNNVLKRMGRKTTKEEIIGKINDLRKNVPNIVLRTSLIVGFPGESCEDFNELKDFIKTIKLDKVGVFTYSREEGTPAAIMEDQIDEEVKKAREEEIMLLQKEVSEEINKNKVGREYDVLIEKFNGEYYIGRSYEMAPDIDGCIYVKGNGAKKDQFCKVKIEKALEYDLVGVVCNESCKLEHHHHHH”, the protein production entry is listed as “failed”.
The entry for “MALAEDDGFYMGVGYQIGGAQQNIDNKGSTLRNNVINNFRQVGVGMAGGNGLLALATNTTMDALLGIGNQIVNTNTTVSNNNAELTQFKKILPQIEQRFETNKNAYSVQALQVYLSNVLYNLVNNSNNGSNNGVVPEYVGIIKVLYGSQNEFSLLATESVVLLNALTRVNLDSNSVFLKGLLAQMQLFNDTSSAKLGQIAENLKNGGAGSMLQKDVKTISDRIATYQENLKQLGGMLKNYDEPYLPQFGPGTSSQHGVINGFGIQVGYKQFFGNKRNIGLRYYAFFDYGFTQLGSLSSAVKANIFTYGAGTDFLWNIFRRVFSDQSLNVGVFGGIQIAGNTWDSSLRGQIENSFKEYPTPTNFQFLFNLGLRAHFASTMHRRFLSASQSIQHGMEFGVKIPAINQRYLRANGADVDYRRLYAFYINYTIGF” is “failed”; for “MALAVYLVPLPGLRASGHAALALLVFAVTMWATEAVPLAVTSLIILFAQPLIGVESFENAVIGFANPILFLMIGGFIMAEAIRKSGLAQRFTYYLLGRLGTSPERGLFVSIFSTGLLSAWIENVVAFAMLLPIIKEIVDIMGCSEPEKGKSNYAKAMILGASFGSLAGGFGTEIGTAPNLMAAAYTSIPFLNWMIFGLPLSIAMLLVTWFLLMRIFPSEVRALENGDALIGERIRMMGSMSRDEKLSAGILLFAILLWVTAGFTGINSYSVSLIAAVMFIFAGVITWKDAQKNIDWGLVVFFGGALSLGSALLKTGAAAWIIDKLVGMLGSDPSTVIVMLVLMAVAVIITQVMSNIALSAILVPLSVTLASAQHQPIGVYAVPVAIACSLSFMLPMADPTVAMAYGSGYVKLRDIPRAGIPIIAVGIILTVLVITTLAAPFIS” it is “failed”; for “MALEQTLKKDWYSILGADPSANMSDLKQKYQKLILLYHPDKQSADVPAGTMEECMQKFIEIDQAWKILGNEETKKKYDLQR” it is “not failed”.
The entry for “MALHSSSDQYGSVAVTIHWLTAVLIVIALLTGFRAAAAEDVTTEAALLRVHLPAAALVLVLTVVRVVWWLGIDDKPEPIDGAPRSQQLIAGTVHLLFYVVVFGMIASGIGMMLASGAAPAIFSRDVPALPEFWHYRPRIPHGLGARLLVLLLIAHLAAALYHHLRGDRVFRRMWFGRNPKS” is “failed”; for “MALKPTIYKFRIALSDMNNDYYDSKNLTIALHPSEKPQRMLARILAFCLNAQKDLEFTKGLSTTEEPDLWHVADDQSITHWIEIGEPEPDRIKKASRLAKQVKVYTYNTKAPVWWEKMSGKFSMLPVSVESFDYDAIDMICQHLDRGTNLSVMITGTSIFVDVNDQHVEVTVKELQSHDAP” it is “not failed”.
To “MALKTDIRGMIWRYPDYFIVGREQCREFARAVKCDHPAFFSEEAAADLGYDALVAPLTFVTILAKYVQLDFFRHVDVGMETMQIVQVDQRFVFHKPVLAGDKLWARMDIHSVDERFGADIVVTRNLCTNDDGELVMEAYTTLMGQQGDGSARLKWDKESGQVIRTALEHHHHHH” belongs “failed”; to “MALLRRFIGQKVRTVIQVTGSEIGSVVGKSTDDLQIVVRGSSPPSPLTTYLEVIGIAESDNAIRAETWTNFGNTFDTQNYNELCKLAN”, “failed”; to “MALPQLSIWQPGDGLRKIKYKYHVCLIVIFSVLIRLLFLTDRYLWCDEASSVLISRHSVDNLLFHAAFDVHPPLYYLLLHDWIILLGDSIAAVRSLSLLFGILTVVLVIALTRWLANERTALLAGWFAALMPMAVHYSQETRMYALMGMLTLAAALALMMWIKTPTHNRYLVAYALLMTFSFYTHYFTLFTLIAHWIAVTILSCQSHKTACYLKLPGWWFANLAIAVAYLPWLPVLFNLLTHLAQLRAGNDIGWIPPVTWRDLPAMYWHFFTGNNGQGFPSFILWLAVGGFIGTVGRISLYNGEYERYQLILFCNLVIPVMLVFIISWWMPLFIDRYFFFSSLSIPPLLAVLLTRAKKAVCGFWFILFTLLFGYGSYHNNPEHIDEFKPLVNYINTRHQPNDAVVVSKMFDYLSYVYYNKRDYRTFLYTPPNAHGTSGRPNAYGFGSLFYAQADQTYIDTLTTLSKSYHRVWLVSGGNFSQDYPLPSEWQNIAKFRSGRFQVQLFVIPTQQARQMQ”, “failed”.
With “MALQAGVEKGENLVVAAPTGSGKTFIALVAIVNSLARAGGRAFYLVPLKSVAYEKYTSFSILSRMGLKLKISVGDFREGPPEAPVVIATYEKFDSLLRVSPSLARNVSVLIVDEIHSVSDPKRGPILESIVSRMLASAGEAQLVGLSATVPNAGEIAEWIGGKIVESSWRPVPLREYVFKEYKLYSPTGGLREVPRVYGLYDLDLAAEAIEDGGQALVFTYSRRRAVTLAKRAAKRLGRRLSSREARVYSAEASRAEGAPRSVAEELASLIAAGIAYHHAGLPPSLRKTVEEAFRAGAVKVVYSTPTLAAGVNLPARRVVIDSYYRYEAGFREPIRVAEYKQMAGRAGRPGLDEFGEAIIVAERLDRPEDLISGYIRAPPERVESRLAGLRGLRHFILGIVAPEGEVSIGSIEKVSGLTLYSLQRGLPRETIARAVEDLSAWGLVEVKGWRIAATSLGREVAAVYLDPESVPVFREEVKHLSFDNEFDILYLISTMPDMVRLPATRREEERLLEAILDASPRMLSSVDWLGPEEMAAVKTAVVLKLWIDEASEDTIYGEWGVHTGDLLNMVSTAEWIASGLSRIAPYLGLNSKVSHILSVIARRIKHGVKPELLQLVEIPGVGRVRARILFEAGYRSIEDLATARAEDLMRLPLIGPSTARQILEFLGRVDEAREAEAREMLARKGLLSYLEGDAVAGEEGE”, the protein production entry was “failed”.
The entry for “MALRKIAGLYRIEKFIRERPVEKIRQWRQRYSRPIVNDLFAWPEEQEPCCPPDGPLNKAINYILNRRDELSCFLSDGAVPLDNNICERAIRPVVMGRKAWLFAGSLMAGNRAAQIMSLLETAKRNGLEPHAWLTDVLTRLPEWPEDRLEELLPLEGFTFSG” is “failed”; for “MALRLALSLCVYLLFTQGAQGNTDDFDCVEIYKQPAFQHPLLKDHKIQETFSLDGKIERSNKYNTKEHCPKGTVAILRQRNVSKGVHLNTAEYSGQHFATIETILDGSIYRGAEADISIHDLKLQNNQYSKSQIWLENGPPGQLNSIQAGLAVHPRLYGDSVTRFTIYWTGDGYQKTGCYNTQCPGFVVVSRNSRIGSGFWGTSVYGKTSLTFKLQVFQDGFSGNWALKMFDEVIGYWPKELFSHLNNGASLVRYGGNTFESPDGISPPMGNGFFPVADFKKTAHFNNVVVINSDYKRVYIEGRKIRLYVDSYNCFRATYWGYTKSTGEAFSFGGPGGNCGF” it is “failed”; for “MALRTLSTFPSLPRRHTTTRREPNLTVIYRNPTTSIVCKSIANSEPPVSLSERDGFAAAAPTPGERFLENQRAHEAQKVVKKEIKKEKKKKKEEIIARKVVDTSVSCCYGCGAPLQTSDVDSPGFVDLVTYELKKKHHQLRTMICGRCQLLSHGHMITAVGGNGGYPGGKQFVSADELREKLSHLRHEKALIVKLVDIVDFNGSFLARVRDLVGANPIILVITKIDLLPKGTDMNCIGDWVVEVTMRKKLNVLSVHLTSSKSLDGVSGVASEIQKEKKGRDVYILGAANVGKSAFINALLKTMAERDPVAAAAQKYKPIQSAVPGTTLGPIQINAFVGGEKLYDTPGVHLHHRQAAVVHSDDLPALAPQNRLRGQSFDISTLPTQSSSSPKGESLNGYTFFWGGLVRIDILKALPETCFTFYGPKALEIHAVPTKTATAFYEAKLGVLLTPPSGKNQMQEWKGLQSHRLLQIEINDAKRPASDVAISGLGWISIEPIRKTRGTEPRDLNEAEHEIHICVSVPKPVEVFLRPTLPIGTSGTEWYQYRELTDKEEEVRPKWYF” it is “failed”.
Take “MALRVTFVAAARSSPLLAERFDDERPLDQAGWNEALRAAGDLLPLAAAELRYCSPTPRSRATGDAIGCAPLSQLALRACDMGRWRGLTLGEAMAREPAAVDAWLADPRSAPHGGESLLGFITRVGGWLDTRPGEDGDRIVAVAEPSVIRAALVYALKAPPGTYWNLDVRPLSTTTVTGRAGRWSLRFEGTPDQGATRPAFRGGNPL”: the protein production entry was “failed”.
The entry for “MALTPDQMPDRAEVVFTCNGKAVGKMRNELDVAMVKPFEERFALATDEGAFHGGDASAPPPLALFIAGLTGCVMTQIRAFAKRLKVTVTDLDVECRVVWDWAKAGPVYETGPKSFEIDIILHSPDPIEAQQALIEAAKKGCFLEQTLGQANTIRHRLKVGDTFIDA” is “not failed”.
Regarding “MALTTISPHDAQELIARGAKLIDIRDADEYLREHIPEADLAPLSVLEQSGLPAKLRHEQIIFHCQAGKRTSNNADKLAAIAAPAEIFLLEDGIDGWKKAGLPVAVNKSQPLPLMRQVQIAAGGLILIGVVLGYTVNSGFFLLSGFVGAGLLFAGISGFCGMARLLDKMPWNQRA”, the protein production entry is given as “failed”.
The entry for “MALVRSLFVSNKILGGSLAGMRKSTSAPKGFLAVYVGESQKKQRYLVLVSYLSQPLFQDLLSKSEEEFGFDHPMGGLTIPCPEDTFLTVTSRIQG” is “failed”.
